From publication PMC11061317 (Cell Research, 2024) come the findings set out here.

Ends that are not written are not given here.

Test [1] deals with T1, bacterially purified GST-tagged Rheb (UniProt Q15382 1-184).
T1 construct: Rheb, small G protein; The real-time BODIPY assays written under functional used His-tagged Rheb from E. coli instead of the GST-tagged protein; also called GST-Rheb; recombinant GST-tagged WT Rheb; source: E. coli BL21 (DE3), purified (Glutathione Sepharose 4B); not shown: GST, N-terminal, kept
Kind of test: pull-down; recombinant Rheb (1 ug) and biotinylated C-tail peptide at a 1:5 molar ratio in 300 uL NETN buffer (40 mM Tris-HCl, 100 mM NaCl, 0.5% NP-40, 1 mM EDTA, 10% glycerol) with 15 uL streptavidin beads, 2 h at 4 °C; SDS-PAGE and immunoblot. The following applies: both partners purified.

Test [2] deals with T2, bacterially purified Rheb-G63V (UniProt Q15382 1-184, G63V).
T2 construct: source: E. coli BL21 (DE3), purified
Described as above. The following applies: both partners purified.

T1 sequence (Q15382 whole entry): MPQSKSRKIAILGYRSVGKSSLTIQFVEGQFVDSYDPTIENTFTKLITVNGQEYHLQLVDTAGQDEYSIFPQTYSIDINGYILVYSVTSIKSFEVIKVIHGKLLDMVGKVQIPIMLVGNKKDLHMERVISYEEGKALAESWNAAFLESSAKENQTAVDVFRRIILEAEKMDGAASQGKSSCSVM
T2 sequence (Q15382 whole entry G63V): as the sequence (Q15382 whole entry) above, with G63V counted along it

B1: biotinylated synthetic peptide of the ATP6AP1 C-tail (12) (peptide)
peptide: HKGPTISLTQIV
modifications: also: biotinylated, position not given here
notes: the last 12 residues of ATP6AP1; also called C12; synthetic C12 peptide; source: synthetic peptide (Genscript ProBio)
On to B1, for which the binding result in test [1] is “binds”.

B2: biotinylated synthetic peptide of the ATP6AP1 C-tail (30) (peptide)
peptide: TYGLHMILSLKTMDRFDDHKGPTISLTQIV
modifications: also: biotinylated, position not given here
notes: ATP6AP1 C-terminal 30 amino acids (C-tail), aa 441-470; also called synthetic C-tail peptide; WT C-tail peptide; source: synthetic peptide (Genscript ProBio)
For the molecule B2, the binding result in test [2] and in test [1] was “binds” in each case.
